According to patent publication US20090010911A1, “METHODS AND COMPOSITIONS FOR AFFECTING CYCLOPHILIN A REGULATION OF KINASES IN MODULATING CELLULAR ACTIVITIES” (IOWA STATE UNIVERSITY RESEARCH FOUNDATION, INC., priority 2007, published 2009):

Molecular target: T1, Itk LKD enzyme (Mus musculus, UniProt Q03526)
T1 construct: linker kinase domain (Itk LKD); made in house; host or cells: Sf9 insect cells (baculovirus), co-infected 1:1 with Lck baculovirus
T1 sequence (Q03526 344-625 limits assumed): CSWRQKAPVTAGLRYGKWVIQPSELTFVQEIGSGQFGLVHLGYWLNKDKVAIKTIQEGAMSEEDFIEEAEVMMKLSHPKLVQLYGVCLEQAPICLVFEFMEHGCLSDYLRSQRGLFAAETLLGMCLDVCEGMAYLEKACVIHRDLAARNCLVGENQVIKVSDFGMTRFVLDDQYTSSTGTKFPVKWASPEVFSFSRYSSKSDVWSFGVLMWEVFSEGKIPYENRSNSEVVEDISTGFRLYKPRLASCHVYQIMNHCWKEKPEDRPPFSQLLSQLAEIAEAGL
Test: Quantitative kinase assay, Km determination for Peptide B and PLCγ1 SH2C-Peptide B fusion
Type: biochemical
From the text: 5(a) Construction of a PLCγ1 SH2C-Peptide B fusion protein was based on alignment of Y783 within the PLCγ1 linker and the Tyr of Peptide B. The 14 amino acids of Peptide B were used to replace the last 16 amino acids of PLCγ1 SH2C-Y783-. The Tyr that is phosphorylated in each substrate is boxed. A mutant construct is also shown that contains serine in place of the tyrosine of peptide B. This site was mutated to serine instead of phenylalanine due to solubility problems associated with the Tyr to Phe mutation. 5(b) FLAG-tagged Itk LKD enzyme (1 μM) was incubated with 20 μM of the PLCγ1 SH2C-Peptide B fusion protein (lane 4) or 20 μM of the PLCγ1 SH2C-Peptide B(YS) mutant protein (lane 5) in an in vitro kinase assay. Lanes 1-3 are Itk enzyme alone, PLCγ1 SH2C-Peptide B substrate alone and PLCγ1 SH2C-Peptide B(YS) substrate alone, respectively, that have each been subjected to the same in vitro kinase assay conditions. (c & d) FLAG-tagged Itk LKD enzyme was incubated with increasing amounts of biotinylated PLCγ1 SH2C-Peptide B 5(c) or biotinylated Peptide B alone 5(d) in an in vitro kinase assay. 5(e) Kinetic parameters describing phosphorylation of Peptide B and the PLCγ1 SH2C-Peptide B fusion protein by Itk. Data shown are the average of two independent experiments.
Kinase assays and Western Blotting—Itk Full-length (FL), linker kinase domain (Itk LKD), kinase domain (Itk KD), full-length Btk or full-length Tec were incubated with the indicated substrates in an in vitro kinase assay buffer (50 mM Hepes pH 7.0, 10 mM MgCl2, 1 mM DTT, 1 mg/ml BSA, 1 mM Pefabloc and 200 μM ATP) for one hour at RT. The samples were boiled, separated by SDS-PAGE and transferred onto a PVDF membrane. The membranes were then blotted with either phosphotyrosine specific antibodies (anti-pY783 for PLCγ1 or pY223 Btk antibody used to detect pY180 in Itk, pY187 in Tec and pY223 in Btk (18)), an anti-phosphotyrosine antibody (4G10 from Upstate), or an anti-FLAG antibody (Sigma) and developed by standard chemiluminescence (Pierce) methods. Quantitative kinase assays (25): Km determinations for Peptide B [(Aminohexanoyl biotin-EQEDEPEGIYGVLF-NH2) (Anaspec Inc.)] and the biotinylated PLCγ1 SH2C-Peptide B fusion were carried out by incubating purified Itk LKD enzyme in reaction buffer (50 mM Hepes pH 7.0, 10 mM MgCl2, 1 mM DTT, 1 mg/ml BSA, 1 mM Pefabloc SC (4-(2-aminoethyl)-benzenesulfonyl-fluoride) and 200 μM ATP) and 5 μCi [^32P] ATP (GE Healthcare) at room temperature. Peptide B concentration was varied between 0-400 μM and PLCγ1 SH2C-Peptide B fusion concentration was varied between 0-80 μM. The enzyme concentration used for kinetic analysis was 0.9 μM. Each assay was done in duplicate. […]

B1: SH2-Peptide B fusion: PLCγ1 SH2C domain covalently linked to the amino terminus of Peptide B, biotinylated fusion protein (protein)
chain: QTNAHESKEWYHASLTRAQAEHMLMRVPRDGAFLVRKRNEPNSYAISFRAEGKIKHCRVQQEGQTVMLGNSEFDSLVDLISYYEKHPLYRKMKLRYPINEEALEKIGTAEPDFGAEQEDEPEGIYGVLF
modifications: left off: things letters cannot carry
notes: PLCγ1 SH2C domain covalently linked to the amino terminus of Peptide B, biotinylated fusion protein
B1 was tested, and the “better substrate (kcat/Km)” value (compared to Peptide B alone) was 7 fold, the “increase in substrate affinity” value (compared to Peptide B alone) was 15 fold and the “kcat value, change on attachment of PLCγ1 SH2C domain to Peptide B” value (compared to Peptide B alone) was “only changed to a small extent”. For the same molecule, the Km (phosphorylation by Itk LKD enzyme 0.9 μM, 200 μM ATP, room temperature) was 5.64 µM.
